Values belong to the binder of their own block, whether it stands above or below them.
Key:
[1] = molecular target: T1, C5 peptide 52-124 fused to GST-tag (human, UniProt P01031 52-124); experiment: summary drawing of the binding reactions to C5 beta-chain fragments
T1 construct: not shown: GST-tag (glutathione S-transferase); vector and linker not restated

[2] = molecular target: T2, C5 peptide 33-111 fused to GST-tag (human, UniProt P01031 33-111); experiment: as above
T2 construct: not shown: GST-tag (glutathione S-transferase); vector and linker not restated

[3] = molecular target: T3, C5 peptide 45-111 fused to GST-tag (human, UniProt P01031 45-111); experiment: as above
T3 construct: not shown: GST-tag (glutathione S-transferase); vector and linker not restated

[4] = molecular target: T4, C5 peptide 33-108 fused to GST-tag (human, UniProt P01031 33-108); experiment: as above
T4 construct: not shown: GST-tag (glutathione S-transferase); vector and linker not restated

[5] = molecular target: T5, C5 peptide 45-124 fused to GST-tag (human, UniProt P01031 45-124); experiment: as above
T5 construct: not shown: GST-tag (glutathione S-transferase); vector and linker not restated

[6] = molecular target: T6, recombinant cynomolgus monkey C5 (cynomolgus monkey, UniProt P01031 20-1676 (human entry), limits assumed); experiment: SPR (Biacore), 37C, pH 7.4
T6 construct: also called cynoC5
T6 chain: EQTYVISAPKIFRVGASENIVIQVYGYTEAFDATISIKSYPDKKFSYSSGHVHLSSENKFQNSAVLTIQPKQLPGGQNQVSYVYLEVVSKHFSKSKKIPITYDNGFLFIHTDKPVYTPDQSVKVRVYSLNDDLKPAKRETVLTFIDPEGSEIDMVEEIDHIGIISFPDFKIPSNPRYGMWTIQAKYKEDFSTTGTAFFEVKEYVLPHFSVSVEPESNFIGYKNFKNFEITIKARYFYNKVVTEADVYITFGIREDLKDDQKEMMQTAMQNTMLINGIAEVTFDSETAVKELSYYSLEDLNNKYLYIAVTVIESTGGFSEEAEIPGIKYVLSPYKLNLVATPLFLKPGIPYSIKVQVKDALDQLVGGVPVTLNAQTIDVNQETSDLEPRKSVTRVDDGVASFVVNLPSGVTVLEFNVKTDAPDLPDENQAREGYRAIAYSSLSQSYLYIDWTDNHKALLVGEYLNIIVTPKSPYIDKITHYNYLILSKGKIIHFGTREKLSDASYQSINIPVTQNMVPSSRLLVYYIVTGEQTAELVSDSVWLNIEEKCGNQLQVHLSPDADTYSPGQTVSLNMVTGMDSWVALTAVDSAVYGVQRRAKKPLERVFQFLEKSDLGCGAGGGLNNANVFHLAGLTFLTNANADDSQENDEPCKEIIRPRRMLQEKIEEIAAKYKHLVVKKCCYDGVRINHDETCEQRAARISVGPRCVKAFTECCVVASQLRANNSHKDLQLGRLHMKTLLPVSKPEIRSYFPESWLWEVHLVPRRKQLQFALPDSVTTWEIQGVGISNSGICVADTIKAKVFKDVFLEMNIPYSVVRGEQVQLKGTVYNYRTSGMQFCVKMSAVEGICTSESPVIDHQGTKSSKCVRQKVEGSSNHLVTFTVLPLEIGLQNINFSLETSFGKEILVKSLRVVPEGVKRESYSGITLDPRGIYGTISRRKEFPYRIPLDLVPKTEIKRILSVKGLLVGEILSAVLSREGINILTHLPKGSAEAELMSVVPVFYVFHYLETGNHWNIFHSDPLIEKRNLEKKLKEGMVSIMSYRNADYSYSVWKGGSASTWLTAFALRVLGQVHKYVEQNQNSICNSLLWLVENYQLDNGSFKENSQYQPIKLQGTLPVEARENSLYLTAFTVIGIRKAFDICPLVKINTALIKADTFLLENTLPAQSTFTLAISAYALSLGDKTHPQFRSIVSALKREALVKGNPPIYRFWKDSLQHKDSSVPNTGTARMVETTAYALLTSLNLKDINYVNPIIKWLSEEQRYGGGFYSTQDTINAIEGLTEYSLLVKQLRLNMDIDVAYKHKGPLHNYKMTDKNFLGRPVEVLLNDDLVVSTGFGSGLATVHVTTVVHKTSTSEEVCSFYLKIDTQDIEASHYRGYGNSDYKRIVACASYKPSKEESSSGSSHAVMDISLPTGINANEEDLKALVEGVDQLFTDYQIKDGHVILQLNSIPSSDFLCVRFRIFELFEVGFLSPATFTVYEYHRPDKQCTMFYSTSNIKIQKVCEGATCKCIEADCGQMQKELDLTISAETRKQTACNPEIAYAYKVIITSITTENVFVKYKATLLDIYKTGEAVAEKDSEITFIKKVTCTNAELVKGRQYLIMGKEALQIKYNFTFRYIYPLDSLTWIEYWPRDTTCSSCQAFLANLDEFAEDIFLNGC
Method: (§1) To observe the cross-reactivity of anti-C5 antibodies against human C5 (hC5) and cynomolgus monkey C5 (cynoC5), BIACORE® kinetics analysis was performed.

[7] = molecular target: T6, recombinant cynomolgus monkey C5; experiment: SPR (Biacore), 37C, pH 7.4, Ab captured on ProA/G
Method: as §1

321-500 [8] = molecular target: T7, 321-500; experiment: Western blot of E. coli lysates expressing GST-fused C5 beta-chain fragments
T7 construct: Expressed in E. coli
Method: (§2) Anti-C5 monoclonal antibodies (MAbs) were tested for binding to C5 β-chain-derived peptides in Western blot analysis. […] The E. coli samples were harvested after incubation with 1 mM Isopropyl β-D-1-thiogalactopyranoside (IPTG) for 5 hours at 37° C., and centrifuged at 20000×g for 1 min to obtain pellets.
T7 GST fusion polypeptide: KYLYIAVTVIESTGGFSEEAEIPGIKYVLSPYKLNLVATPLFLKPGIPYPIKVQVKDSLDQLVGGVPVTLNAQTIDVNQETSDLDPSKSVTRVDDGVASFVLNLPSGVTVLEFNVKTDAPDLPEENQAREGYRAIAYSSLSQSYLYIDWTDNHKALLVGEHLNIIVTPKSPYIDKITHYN

481-660 [9] = molecular target: T8, 481-660; experiment: as above
T8 construct: Expressed in E. coli
Method: as §2
T8 GST fusion polypeptide: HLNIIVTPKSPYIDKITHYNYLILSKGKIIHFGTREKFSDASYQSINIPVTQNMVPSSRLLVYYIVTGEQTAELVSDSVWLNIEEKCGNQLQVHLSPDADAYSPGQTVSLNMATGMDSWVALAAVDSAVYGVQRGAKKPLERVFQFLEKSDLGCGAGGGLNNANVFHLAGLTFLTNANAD

161-340 [10] = molecular target: T9, 161-340; experiment: as above
T9 construct: Expressed in E. coli
Method: as §2
T9 GST fusion polypeptide: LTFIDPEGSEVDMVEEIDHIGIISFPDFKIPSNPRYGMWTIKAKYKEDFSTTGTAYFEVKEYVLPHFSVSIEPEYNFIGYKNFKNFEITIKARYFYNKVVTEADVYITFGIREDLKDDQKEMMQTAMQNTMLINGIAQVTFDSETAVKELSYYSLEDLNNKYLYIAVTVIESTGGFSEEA

[11] = molecular target: T6, recombinant cynomolgus monkey C5; experiment: SPR (Biacore), pH 7.4; KD on cynoC5 against KD on hC5
Method: as §1

[12] = molecular target: T1, C5 peptide 52-124 fused to GST-tag; experiment: Western blot of E. coli lysates expressing GST-fused MG1-MG2-derived fragments; rhC5 (0.5 ug) as control lane
Method: (§3) The anti-C5 MAbs were tested for binding to MG1-MG2 domain-derived peptides in Western blot analysis. […] The E. coli samples were harvested after incubation with 1 mM IPTG for 5 hours at 37° C., and centrifuged at 20000×g for 1 minute to obtain pellets. The pellets were suspended with the sample buffer solution (2ME+), and used for Western blot analysis.

[13] = molecular target: T2, C5 peptide 33-111 fused to GST-tag; experiment: as above
Method: as §3

[14] = molecular target: T3, C5 peptide 45-111 fused to GST-tag; experiment: as above
Method: as §3

[15] = molecular target: T4, C5 peptide 33-108 fused to GST-tag; experiment: as above
Method: as §3

[16] = molecular target: T5, C5 peptide 45-124 fused to GST-tag; experiment: as above
Method: as §3

321-500 [17] = molecular target: T7, 321-500; experiment: summary drawing of the binding reactions to C5 beta-chain fragments
481-660 [18] = molecular target: T8, 481-660; experiment: as above
161-340 [19] = molecular target: T9, 161-340; experiment: as above

T3 sequence (P01031 45-111): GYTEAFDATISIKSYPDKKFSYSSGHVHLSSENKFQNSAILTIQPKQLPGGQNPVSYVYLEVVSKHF
T1 sequence (P01031 52-124): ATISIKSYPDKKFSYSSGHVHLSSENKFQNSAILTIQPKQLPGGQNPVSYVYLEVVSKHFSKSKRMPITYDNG
T2 sequence (P01031 33-111): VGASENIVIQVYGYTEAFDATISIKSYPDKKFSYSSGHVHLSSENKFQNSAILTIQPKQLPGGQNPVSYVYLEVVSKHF
T5 sequence (P01031 45-124): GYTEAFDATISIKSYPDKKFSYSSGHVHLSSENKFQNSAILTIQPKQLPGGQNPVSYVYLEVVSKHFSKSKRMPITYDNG
T4 sequence (P01031 33-108): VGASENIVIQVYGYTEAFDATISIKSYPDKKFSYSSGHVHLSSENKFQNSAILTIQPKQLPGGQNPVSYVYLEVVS

binding result [1]: no binding | binding result [2]: no binding | binding result [3]: no binding | binding result [4]: no binding | binding result [5]: no binding | fold weaker KD toward cynoC5 than toward hC5 [6]: 8 fold | Kd [7]: 2.88 nM | binding result (321-500 [8]): no binding | binding result (481-660 [9]): no binding | binding result (161-340 [10]): no binding | fold weaker KD toward cynoC5 than toward hC5 [11]: 8 times
B1: CFA0672 (antibody, V domains shown)
VH: QSVEESGGRLVTPGTPLTLTCTASGFSLSGNAINWVRQAPGKGLEWIGCIYTGSDTTYYATWAKGRFTISKTSTTVDLKIASPTTEDTATYFCARGSGLWGPGTLVTVSS
VL: DVVMTQTPASVSAPVGGTVTIKCQASQNIYSLLAWYQQKPGQPPKLLIYHTSDLASGVPSRFRGSGSGTEFTLTISDLECADAATYYCQCTAYGSSDVGGTFGGGTTVVVE
notes: Chimeric, rabbit V regions; also called CFA0672-F760G4

Kd [7]: 55.4 nM | binding result [12]: no binding | binding result [13]: no binding | binding result [14]: no binding | binding result [15]: no binding | binding result [16]: no binding | binding result (321-500 [8]): no binding | binding result (481-660 [9]): no binding | binding result (161-340 [10]): no binding
B2: CFA0305 (antibody, V domains shown)
VH: QSLEESGGDLVKPGASLAVTCTASGFSSSSSYYMCWVRQAPGKGLEWIGCIYTGSGATYYASWAKGRFTISKTSSTTVTLQMTSLTVADTATYFCASDGGYVTPTHAMYLWGPGTLVTVSS
VL: DVVMTQTPASVSAAVGGTVTIKCQASQNIGSDLAWYQQKPGQPPRLLIYGASKLASGVSSRFSGSGSGKEFTLTISDLECADAVTYYCQCTFVGSSYGNAFGGGTEVVVK
notes: Chimeric, rabbit V regions; also called CFA0305-F760G4

binding result (321-500 [17]): no binding | binding result [1]: no binding | binding result (481-660 [18]): no binding | binding result [2]: no binding | binding result (161-340 [19]): no binding | binding result [3]: no binding | binding result [4]: no binding | binding result [5]: no binding | Kd [7]: 17.9 nM
B3: CFA0366 (antibody, V domains shown)
VH: QSLEESGGDLVKPGASLSLTCTAAGLDFSSSYYMCWVRQAPGKGLEWIACIYAGSSGIIYYANWAKGRFTISRPSSTTVTLQMTSLTAADTATYFCATYPTYGDGGHAFNLWGPGTLVTVSS
VL: AQVLTQTPSSVSAAVGGTVTINCQSSQSVYSSDYLSWYQQKPGQPPKLLIYEASKLASGVPPRFSGSGSGTQFTLTISGVQCDDAATYYCQGTYYSSGWYFAFGGGTEVVVK
notes: Chimeric, rabbit V regions; also called CFA0366-F760G4
